Experimental data as given in patent US20190000964A1.

Each binder was assayed against human CCR5 receptor (hCCR5) (human), P51681 (assay: inhibition of gp120CM235/sCD4 binding to GHOST CD4.CCR5 cells (FIG. 4C)).
Chain of human CCR5 receptor (hCCR5) (human), P51681 (P51681 whole entry): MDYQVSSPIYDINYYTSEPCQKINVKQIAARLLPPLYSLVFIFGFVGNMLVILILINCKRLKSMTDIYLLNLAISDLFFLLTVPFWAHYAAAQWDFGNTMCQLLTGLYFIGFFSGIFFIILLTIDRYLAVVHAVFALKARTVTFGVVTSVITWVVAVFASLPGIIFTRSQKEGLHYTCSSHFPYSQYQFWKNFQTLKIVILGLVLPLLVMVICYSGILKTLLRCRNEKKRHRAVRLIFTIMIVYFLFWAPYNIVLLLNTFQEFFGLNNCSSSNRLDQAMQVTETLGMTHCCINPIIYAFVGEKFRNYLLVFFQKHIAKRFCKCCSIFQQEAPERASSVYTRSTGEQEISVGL

Binder | IC50
ASTTTNYT (modifications not checked) [DAPTA (Dala1-peptide T-amide)] | 51 pM

These binders were tested against human CCR5 receptor (hCCR5) (human), P51681 (assay: inhibition of gp120/sCD4 complex binding to CCR5-expressing Cf2Th cells by competing peptide).

Binder | EC50
SSTYR (modifications not checked) | 100 pM
YSSYR (modifications not checked) | 600 pM
SSEYR (modifications not checked) | 300 pM
TTSYT (modifications not checked) | 50 pM
NSNYS (modifications not checked) | 500 pM
NSEYR (modifications not checked) | 80 pM
TSNYS (modifications not checked) | 200 pM
NNRYR (modifications not checked) | 200 pM
TISYR (modifications not checked) | 400 pM
NTSYR (modifications not checked) | 100 pM
NSSYR (modifications not checked) | 40 pM
NSSYT (modifications not checked) | 200 pM
TTSYR (modifications not checked) | 100 pM

These binders were tested against human CCR5 receptor (hCCR5) (human), P51681 (assay: inhibition of gp120BaL/sCD4 binding to Cf2Th/synR5 cells (FIG. 4A)).

Binder | IC50
ASTTTNYT (modifications not checked) [DAPTA (Dala1-peptide T-amide)] | 55 pM

Each binder was assayed against human CCR5 receptor (hCCR5) (human), P51681 (assay: inhibition of gp120CM235/sCD4 binding to Cf2Th/synR5 cells (FIG. 4B)).

Binder | IC50 | percent inhibition of specific binding
ASTTTNYT (modifications not checked) [DAPTA (Dala1-peptide T-amide)] | 320 pM | > 80%
